Drawing on US12723078 (University of Texas, dated 2026), this text covers OD450 for 15 molecules.

First the molecules themselves.
B1: mAb of B cell clone 110 (supernatant) (antibody, V domains shown)
VH: QSLEESGGDLVKPEGSLTLTCTASGFSFSSSYWICWVRQAPGKGLEWIGCIYAGNSANTYYASWAKGRFTISKTSSTTVTLQLTSLTAADTATYFCASRNGGAPDGLNLWGPGTLVTISS
VL: ELDLTQTPASVEAAVGGTVTIKCQASLNINSWLAWYQQKPGQPPKLLISYTSSLASGVPSRFKGSGSGTEYTLTINDLECADAATYYCQTTYFGTNGGGFGGGTEVEIK
notes: rabbit; also called B1-#110
B2: mAb of B cell clone 162 (supernatant) (antibody, V domains shown)
VH: QSVKESEGGLVQPGGSLTLSCKASGIDFSSAYMSWVRQAPGKGLEWIGKMRINDRSHYANWVNGRFTISNHNDQNTVELQLNSLTAADTATYFCARIATGTNVDDFWGPGTLVTISS
VL: ELVMTQTASPVSAAVGGTVTISCQSSQSVYSNNWLSWYQQKPGQPPKRLIYKASTLETGVPSRFKGSGSGKQFTLTISDLECDDAATYYCAGGYSGDLYAFGGGTEVVVK
notes: rabbit; also called B1-#162
B3: mAb of B cell clone 167 (supernatant) (antibody, V domains shown)
VH: EQLMEESGGGLVQPEGSLTLTCTASRFSLSNMNVMCWVRQAPGKGLEWIGCINIGGTNIWYASWAKGRFTISKTSSTTVTLQMTSLTVADTATYFCARSYITDRIYDYDFWGPGTLVTISS
VL: ELDMTQTPSPVSAAVGGSVTISCQASQTIYNNKNLAWYQQKPGQPPKLLIYQASKLASGVSSRFSGSGSGTQFTLTISGVQCDDAATYYCQGEFSCSSGDCTTFGGGTEVVVK
notes: rabbit
B4: mAb of B cell clone 3 (supernatant) (antibody, V domains shown)
VH: QSLEESEGDLVKPEGSLTLTCKASGFDFSSDAMCWVRQAPGKGLEWIGCIYNGDEITDHASWAKGRFTISKTSPTTVTLQMTSLTVADTATYFCARAVYSDGGAGYPYMYGMDLWGPGTLVTVSS
VL: ELDMTQTPASVEAAVGGTVTIKCQASQNIYSYLVWYQQKPGQPPKLLISKASTLASGVSSRFKGSGSGTEFTLTINDLECADAATYYCQTNYFSSTSHFGVFTFGGGTELEIK
notes: rabbit; also called B1-#3
B5: mAb of B cell clone 125 (supernatant) (antibody, V domains shown)
VH: EQSLEESGGGLVQPEGSLTLTCTASGFSFTKNYYMCWVRQAPGKGLEWIGCIYAGSTNTFYASWAKGRFTISKASSTTVDLKMTSLTVADTATYFCARDFVSYLNLWGPGTLVTVSS
VL: ELDLTQTPSSSSAAVGGTVTINCQASQSVYNKNYLSWFQQKPGQPPKLLIYYASTLASGVPSRFKGSGSGTEFTLTISDVVCDDAATYYCAAYKGVSDDGISFGGGTEVEIK
notes: rabbit
B6: mAb of B cell clone 160 (supernatant) (antibody, V domains shown)
VH: QEQLVESGGGLVQPEGSLTLTCKASGIDFSSGYWICWVRQAPGKGLELIACIFTSSGTTYYASWAKGRFTISKTSSTTVTLQMTSLTAADTATYFCARDIYSYGMDLWGPGTLVTVSS
VL: ELDLTQTPASVSAAVGGTVTIKCQASQSISSSYLAWYQQKPGQPPKLLIYSASSTASGVPSRFKGSGSGTQFTLTISDLECADAATYYCQSTYISSSKYGAVFGGGTELEIK
notes: rabbit; also called B1-#160
B7: mAb of B cell clone 93 (supernatant) (antibody, V domains shown)
VH: EQSVEESGGDLVKPGTSLTLTCTASGFSFSGNTICWVRQAPGKRPEWIACIYPSSTSITTYATWAKGRFTVSKTSSTTVTLQMTSLTAADTATYFCARRYAAFLTYGSGAFDPWGPGTLVTISS
VL: ELDLTQTPASVSAAVGGTVTINCQASESIGSALAWYQQKPGQPPKLLIYSASALASGVPSRFKGSGSGTEYTLTISDLECADAATYYCQSYYGSGTTALDTFGGGTEVEIK
notes: rabbit; also called B1-#93
B8: mAb of B cell clone 175 (supernatant) (antibody, V domains shown)
VH: ESEGGLVKPGGTLTLTCKVSGIDFNSYKYYYMCWVRQAPGKGLEWIGCMSTASRNIYYASWAKGRFTISETSSTSVTLQMTTLTAADTATYFCAKSHGGDGGYGVVLWGPGTLVTISS
VL: ELVMTQTPSSVSAAVGDTLTINCQASETISNRLAWYQQKPGQPPKLLIYSASTLESGVPSRFRGSGSGTQFTLTISDLECADAATYYCQSIRSSSGVVHPNTFGGGTEVEIK
notes: rabbit
B9: mAb of B cell clone 117 (supernatant) (antibody, V domains shown)
VH: EQSLEESGGDLVKPEGSLTLTCTASGFSFSSSYYMCWIRQPPGRGLEWLACIYTGSDSTYYAPWAKGRFTISRTSSTTVTLQMTSLTAADTATYFCAGDWDYADAAGYYVARGFNLWGPGTLVTISS
VL: ELDLTQTPASVSAAVGGTVTIKCQASEDIYSNLAWYQQKPGQPPKLLIYKASTLASGVPPRFKGSGSGTEYTLTISGVQCDDAATYACQTTYWTTTDDNPFGGGTEVEIK
notes: rabbit
B10: mAb of B cell clone 154 (supernatant) (antibody, V domains shown)
VH: QSVKESGGDLVKPGASLTLTCKASGFSFSSGHYMYWVRQAPGKGLEWIACIYAGSDTGSTWYASWAKGRFTISKTSSTTVTLQMTSLTAADTATYFCARSSNSYGNYGVSNLWGPGTLVTVSS
VL: ELDLTQTPASVEAAVRGTVTIKCQASQSISYYLAWYQQKPGQPPKVLIYKASTLASGVPPRFKGSGFGTEFTLTISDLECADAATYYCQSTYGRDNNDLFFAFGGGTEVEIK
notes: rabbit
B11: mAb of B cell clone 173 (supernatant) (antibody, V domains shown)
VH: QSVEESGGDLVKPGASLTLTCTASGFDFSSNAYLCWVRQAPGKGLEWIGCIYDGTSGDTYYANWAKGRFTISRSSSTTVTLQMTSLTAADTATYFCARDTRSSNYYFNLWGPGTLVTISS
VL: ELVLTQTPSSTSAAVGGTVTINCQASQSVDNNKQLSWYQQKPGQPPKQLIYSASKLASGVPSRFKGSGSGTQFTLTISDLECDDAATYYCAGYYYSGSATDAWAFGGATEVEIN
notes: rabbit
B12: mAb of B cell clone 170 (supernatant) (antibody, V domains shown)
VH: QSVEESGGGLVKPGASLTLSCTASGFDFSSKYYMWWVRQAPGKGLEWIARIYGGSSDSTDYATWARGRFAISRTSSTTVTLRMTSLTAADTATYFCGRVIDGACGYDLWGPGTLVTVSS
VL: ELDLTQTPASVSAAVGGTVTISCQSSQSVHHSQTVHNNQWLAWYQQKPGQPPKLLIYDASKLASGVPSRFTGSGSGTQFSLTISAVQCDDAATYYCQGGYSYGDVYGFGGGTELEIK
notes: rabbit; also called B1-#170
B13: mAb of B cell clone 98 (supernatant) (antibody, V domains shown)
VH: EQSLEESGGDLVKPEGSLTLTCTASGFSFSSSYWICWVRQAPGKGLEWIACVATGSGTTDYASWAKGRFTMSKTSSTTVTLQMTSLTVADTATYFCARIGAFYSFRLWGPGTLVTISS
VL: ELDLTQTPGSVEAAVGGTVTIKCQAGQSIYNYLSWYQQKPGQPPKLLIYSASTLESGVPPRFSGSGSGTEFTLTISDLECADAATYSCQNNYGIGSNYGPGFGGGTEVEIK
notes: rabbit; also called B1-#98
B14: mAb of B cell clone 128 (supernatant) (antibody, V domains shown)
VH: RAVGKESGGDLVTLGGSLKLSCKASGIDLSNFYYMCWVRQAPGKGLEWIGCVASDSSRTHYATWPKGRFTISKTSSTTVTLQMTSLTAADTATYFCARGSGASTNGVWWVMGDGMDLWGPGTLVTVSS
VL: ELDMTQTPSSVSAAVGGTVTIKCQASQSISSYLSWYQQKPGQPPKRLIYKASTLPSGVPPRFKGSGSGTEFTLTISDLECADAATYYCQNNYHSGSSNGGGFAFGGGTQVEIK
notes: rabbit
B15: mAb of B cell clone 115 (supernatant) (antibody, V domains shown)
VH: EQSVKESGGGLVQPEGSLTLTCTASGFSFSSSYWICWVRQAPGKGLEWIGCIATGTGSTYYANWVNGRFTMSKPSSTTVTLQMTTLTAADTATYFCARGGGYWSFSLWGPGTLVTISS
VL: ELVMTQTPSSVEAAVGGTVTNKCQASEDIYSNLAWYQQKPGQPPKLLIYGATTLASGVPSRFKGSGSGTEFTLTISDLECADAATYYCQAESNDVWAFGGGTEVVVK
notes: rabbit

The target in this test is T1, human LILRB1 recombinant protein (human, UniProt Q8NHL6 24-461).
T1 construct: The ELISA method says only 'LILRB1 recombinant proteins' coated on plates; also called leukocyte immunoglobulin-like receptor subfamily B member 1
T1 sequence (Q8NHL6 24-461 limits assumed): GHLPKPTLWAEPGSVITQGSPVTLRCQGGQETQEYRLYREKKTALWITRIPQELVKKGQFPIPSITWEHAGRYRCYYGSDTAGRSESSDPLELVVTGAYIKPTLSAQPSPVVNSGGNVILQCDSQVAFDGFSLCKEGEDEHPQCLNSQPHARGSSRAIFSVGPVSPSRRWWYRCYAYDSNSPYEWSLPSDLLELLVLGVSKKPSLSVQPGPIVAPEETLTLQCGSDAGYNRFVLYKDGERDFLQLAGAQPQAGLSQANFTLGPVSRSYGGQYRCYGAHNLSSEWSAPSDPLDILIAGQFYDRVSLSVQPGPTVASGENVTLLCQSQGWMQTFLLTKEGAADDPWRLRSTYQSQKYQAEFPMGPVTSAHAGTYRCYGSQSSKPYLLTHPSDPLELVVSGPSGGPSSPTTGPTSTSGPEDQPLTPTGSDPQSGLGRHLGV
The test is described as follows: ELISA, B cell supernatant.
For B1, the OD450 came to 2.31 OD450.

Take B2: the OD450 amounted to 2.02 OD450.

Regarding B3, the OD450 worked out at 1.12 OD450.

B4: the OD450 was found to be 2.11 OD450.

As for B5, the OD450 was found to be 2.43 OD450.

As for B6, the OD450 was determined as 1.87 OD450.

As to B7, the OD450 is 1.72 OD450.

For B8, the OD450 is 2.02 OD450.

Turning to B9, the OD450 worked out at 2.23 OD450.

On to B10, for which the OD450 stood at 1.98 OD450.

Take B11: the OD450 came to 2.14 OD450.

Regarding B12, the OD450 is 2.26 OD450.

On to B13, for which the OD450 came out at 2.01 OD450.

Take B14: the OD450 was determined as 2.51 OD450.

On to B15, for which the OD450 turned out to be 1.53 OD450.
